Key:
[1] = test system: LARP1 DM15 E886 mutant (Homo sapiens), Q6PKG0-3; test: EMSA; settings: 5' m7Gppp cap; Competition assays: 20 mM Tris pH 8, 150 mM NaCl, 10% glycerol, 1 mM DTT, 0.5 ug BSA, 0.5 ug tRNA, 30 min on ice, native gel; EMSA as in Lahr et al. 2015 with …
[2] = test system: LARP1 DM15 Y922 mutant (Homo sapiens), Q6PKG0-3; test: EMSA; settings: 5' m7Gppp cap; Competition assays: 20 mM Tris pH 8, 150 mM NaCl, 10% glycerol, 1 mM DTT, 0.5 ug BSA, 0.5 ug tRNA, 30 min on ice, native gel; EMSA as in Lahr et al. 2015 with …

Sequence: CCUCUUUUCCGUGGCGCCUCGGAGGCGUUCAGCUGCUUCAAG [m7Gppp-RPS6 42mer (capped TOP)]
- Kd [1]: 8 µM
- Kd [2]: 2.6 µM
